This is an account of results in patent publication US20200197469A1.

Test [1] addresses purified HIV-1 gp120 (HIV-1). As to the kind of experiment: SPR (Biacore); gp120 immobilized on the chip, MOMO30 flowed at 6.25 nM to 200 nM; triplicate on separate days. For orientation: SPR reads the build-up and loss of mass on a sensor chip optically.
In test [2] the target is purified HIV-1 gp120 (HIV-1). As to the kind of experiment: cell-based or functional assay.

As usually defined, the Kd is the constant that tells how readily two partners part at equilibrium. Low readings indicate a tighter complex, high ones a looser complex.

For the substance MOMO30 protein from Momordica balsamina, the Kd in test [1] turned out to be 5800 nM. This substance also yielded an IC50 in MAGI infectivity assay, HIV-1 lab strain NL4-3 in test [2] of 0.032 nM.
